Test results reported in the DeepSol protein solubility set.

Experiment: soluble on expression in E. coli; label from the status in PepcDB or PDB records

Sequence	soluble on expression in E. coli
MNILKHFPSYVGPSKIRTLVIPIGHWTRKEFNNAVQKLSEFNEIHLSDVTPIDSPIFTPQGFPHGKLFFDFLTIDHDDALELFLYDFEPFRKTFVIIGLVNDYSDPLTNLNFMKEKYPTLISPNLVYASSTPTKELEQTIDTMENVFASSPDMQKNIETIMCDIARNFLTALNSYYSSYKHVTLRSPGAIGGNAVLKTTLIRQNSYTSSSSSTPMSAVQSSVSSSSKAGSVTTASKRLSSFEMTTNSLKRSASLKLATTLSTSENRSQQKSLGRQMKILGNFQLLAGRYVDALNSFVDAITTLYKVRDYLWLGSALDGISICFLLLSYLGLSYQIPQIVSLICPVEKLNFESSSTGISPVDSNSKATASTTASSTPRNSISIAAMQSPRNSIMSLSAPALNIDVENINLPLLIKCISDKVLYYYDLSLMHNSEYAPQVVYCEFLLKTLTFMTSCYKSSEFSKDVLDNIVKNQHRALSDIPNSPMFPRFEVYFYSNKLFELQLKEMQVEAQIKIYSTMAEVYRLLGYKRKQLFVLRLLMVALLATPNKIAWHPDYRTLIDTIIELLNINESEAKINVDDPSQSTWLILQKKILQLCIKVSRKINDFEYVAKFSSILITKYTHLLNQSEQDALFKEYIQPSITNESITSYWDPFILREVVINRILDSDPTSNEIPLESDVSSLESLENRQKTQDINPQEVFNPFKRVQPTSFVSNNSTKVPILVFLVGDKAEFTCRVQNPFKFDFTINDIQLDEEISEFCEIDRKAVSYSGPYNVKAESIRSITLPLIIKKPTYKKIYEISCLKISILKLPLQKFDIINDSRRSNPVEEEAEYSKCIYGKLKIKILPEQPQLELLSTSKMTRNSWMMLDGTKTDFHITVRNKSLSCAINHIKIIPMNNIEQMLKPDYWKKMPPDDLYIMEKQLDWLSKSCVRIIKLPTVIKPNETITFDLELDNTAVPFNFTGFDLLIEYGMSATDESCIYLKKLSIPYEVTLRRTIEVPSMDIIPLNELFSSQVENVDWIEYVMSKIRAESNLHSRDFILLLLDFRNSWIDGIKLNVQFEDFTSNEYHVEASHTSRIIVPIKKIDYKKYNFENTPIPRIYPGRQFIQSGLNEEQTIEMRQKFWCREHIISKLKCNWKLTTDQSVTGSVDFNKFIEKFDHKMVYTIYPGRLFYGVQLLLDEPKVKVGEIINLKIITEPTSTCRRKQNSTVNFLDIVIFDSKTSKILPRSNRRILYNGSLTKPISTTKVSEINLEIIPIEKGRYEFSVCISKSNNQDGIIQFDSENVILSVI	soluble
MAHHHHHHMSLLRMCYRSIDITVKSRHARTFLKKRLMEQWAAKCKEPNPEKQRFYMDLAGSFLQALHTERNPKPGKVVNFQLSRQVAYEQKLADREKSAGARRVRRMSKEVKTQDH	not soluble
MGSDKIHHHHHHMERFFIVGCGDIGKKVARIALADGAGVAALIRSPEKAESLREMGVTALEANLDERDSLAGMPTRGAVVFYFAPPPGGGVTDPRVRAFCDAIAPGEEPRKIVYLSTSGVYGDCGGDVVTEETPPNPQTSRARRRYDAETVFRQWGAERGVPVVILRVTGIYGPGRLPLQQLTSGQPVLEESLAPFTNRIHSEDLARICLAAAEHGEDGDIFNVSDGHPTTMTAYFDACADALGLPRPRRVTLEEARRVMTPLMFSYVTESRKMDNRLMREKLHVTLLYPTMQEGVRSSVA	not soluble
PEYSLFVGDLTPDVDDGMLYEFFVKVYPSCRGGKVVLDQTGVSKGYGFVKFTDELEQKRALTECQGAVGLGSKPVRLSVAIPKASRVKPVE	soluble
MAHHHHHHMLTTYNIIWKKEEEDDSLNIEKRNRLFHEHVKEQKNDILSPSEFDLLVNDIEDLLEEQQINETEKLYKVSKSPNEKFNKKYKLSITDLSAQLWCEQQLELVLTTGKRRETEAMRLGIERHEILEKADHLIVNVEVNTREESLGYRLLNSITLLGQLFQTKKAREVWVFGIIRNYVLRGIIDELRIEYDNVTKKEYLIISDTKTRKEKKEPSLAQKRTSAIQVQTYCLILQQLKNGKADFKKLFEIYECDPLFEFTAVDLVKYKNLENLSIELNKLFMKLPKIKEEMEIVYEHEGKEFSRNLIPYFYHSTLYTINILLDYWDGKRSSDVVENSDKWKCKFCDFVKNCVRCPLDY	not soluble
SAENREPRCAIEAELDPVEYTLRKRLPHRLPRRPNDIYVNMKTDFKAQLARCQKLLDGGTRGQNACTEIYIHGLGLAINRAINIALQLQAGSFGSLQVAANTSTVELVDELEPETDSREPLTRVRNNSAIHIRVFRVTPK	soluble
QSDEWRRTTRLLGEILEDTTRPPLERLRRLVLAFVRSECEEAAIRVALSDAAPLYRDADEAREVKAEGARVFQAFLREALPEVAEAERSLAGDLLTTTLGAVGKQFSEQPRSEAEIERYAEALADMLCAYLAALGER	not soluble
MGSDKIHHHHHHMHDVLAKGILSSNNGMNIYRGCTHGCIYCDARSLCYGMDHIFEDIEVKTNVVELLEDTLKRKRKKCMIGTGAMSDPYIHLEEKLQNTRRCLEIIDKYGFGLSILTKSNRILRDLDLLKSINNKAKCVVEMTLTTYDEELCKIIEPNVSTTKERFEVLKIMRDNKIPTVVWLSPILPYINDTEENIRGILDYCIEAEVKGIIVFGIGVTLRNGNREYYYKNLDKQFKGLKEKYIRQYGNSYEVVSKNHEKLMKIIKETCNKNNIICDIREVFNYMRTFEEKNNEVQIGFDI	not soluble
MGSSHHHHHHSSGLVPRGSHMALSRGLPRELAEAVAGGRVLVVGAGGIGCELLKNLVLTGFSHIDLIDLDTIDVSNLNRQFLFQKKHVGRSKAQVAKESVLQFYPKANIVAYHDSIMNPDYNVEFFRQFILVMNALDNRAARNHVNRMCLAADVPLIESGTAGYLGQVTTIKKGVTECYECHPKPTQRTFPGCTIRNTPSEPIHCIVWAKYLFNQLFGEEDADQEVSPDRADPEAAWEPTEAEARARACNEDGDIKRISTKEWAKSTGYDPVKLFTKLFKDDIRYLLTMDKLWRKRKPPVPLDWAEVQSQGEETNASDQQNEPQLGLKDQQVLDVKSYARLFSKSIETLRVHLAEKGDGAELIWDKDDPSAMDFVTSAANLRMHIFSMNMKSRFDIKSMAGNIIPAIATTNAVIAGLIVLEGLKILSGKIDQCRTIFLNKQPNPRKKLLVPCALDPPNPNCYVCASKPEVTVRLNVHKVTVLTLQDKIVKEKFAMVAPDVQIEDGKGTILISSEEGETEANNHKKLSEFGIRNGSRLQADDFLQDYTLLINILHSEDLGKDVEFEVVGDAPEKVGPKQAEDAAKSITNGSDDGAQPSTSTAQEQDDVLIVDSDEEDSSNNADVSEEERSRKRKLDEKENLSAKRSRIEQKEELDDVIALD	soluble
MGSDKIHHHHHHMKPLADRIRPENFNEVFGQKHIIGEGKILDRILKSSLVPNMIFYGPPGTGKTTVANIIAKKTNKAFYKLNATTASVKDVREITDSTNTLMGRNGVLLYLDEIQNFNKKQQQSLLEFMENGSITLIASTTENPYFYVYNAILSRSTIFEFKPLESDELMKAVNRAVELIKDELKTTEIIITEDAKKYAVGVSSGDVRKTLNSIEIAVYSTKPNEEGNIFIDLETMKECTQKNVLNFDKDGDNHYDILSAFQKSIRGSDADAAVLYLAMLIKGGDLKSICRRLLVIAAEDIGLAYPQAISIVKACTDSALELGFPEARIPLAEAVILLATSPKSNSAITAVDSALRDLDTINVGSIPDYLRDGHYEGAKKLGRMQDYKYPHSYENNYVKQKYLPSNLENRRYYEYGKNKIEEKCREYWERIKY	not soluble
MGSDKIHHHHHHMSETELRKRQAQFTRELHGDDIGKKTGLSALMSKNNSAQKEAVQKYLRNWDGRTDKDAEERRLEDYNEATHSYYNVVTDFYEYGWGSSFHFSRFYKGESFAASIARHEHYLAYKAGIQRGDLVLDVGCGVGGPAREIARFTGCNVIGLNNNDYQIAKAKYYAKKYNLSDQMDFVKGDFMKMDFEENTFDKVYAIEATCHAPKLEGVYSEIYKVLKPGGTFAVYEWVMTDKYDENNPEHRKIAYEIELGDGIPKMFHVDVARKALKNCGFEVLVSEDLADNDDEIPWYYPLTGEWKYVQNLANLATFFRTSYLGRQFTTAMVTVMEKLGLAPEGSKEVTAALENAAVGLVAGGKSKLFTPMMLFVARKPENAETPSQTSQEATQ	not soluble
SLHNGGLMAGWHLDTKMAQDIVARTMRIIDTNINVMDARGRIIGSGDRERIGELHEGALLVLSQGRVVDIDDAVARHLHGVRQGINLPLRLEGEIVGVIGLTGEPENLRKYGELVCMTAEMMLEQSRLMHLLAQDSRLREELVMNLIQAEENTPALTEWAQRLGIDLNQPRVVAIVEVDSGQLGVDSAMAELQQLQNALTTPERNNLVAIVSLTEMVVLKPALNSFGRWDAEDHRKRVEQLITRMKEYGQLRFRVSLGNYFTGPGSIARSYRTAKTTMVVGKQRMPESRCYFYQDLMLPVLLDSLRGDWQANELARPLARLKTMDNNGLLRRTLAAWFRHNVQPLATSKALFIHRNTLEYRLNRISELTGLDLGNFDDRLLLYVALQLDEER	soluble
MSSNLQLVETFDSRQFVVARWNRNDTTAMVPSAIAVVVFVESVEYKLGCKEKIGYSPTPEDQDQFMILQMESIDEANRICHDSIAKGFAINNTKIVFTPLLGLNGFRLQDAIDFMKTSQPHFNNDELLEVLTMAICQELPERLKILEDGFSFIEQGVSELIQNSACEMFGSFASPVRRNGYSDIDINVESVSAPGQRVSTNVRPLNEVVANPKCLITHPLTKSELETYPQEEIIKILYRCFNENSAFKTKFEMRFLPARTPIIVFKNIEVEGMNVSYDLSVHNQISVEKASLLHEFIVKDKSKGSRMKNAMMFIVHWAKSNKLLSGDYPEEKLEVKTKLNSYIINQLVIHFVQAATNKVHVNPQAKRDSRVNEYNFDTLFGDYCKFFRELFKYYANFDFTNKAIYGKKAMQKKTLSSAHGGVEESPLMLMDPMDITHNISAKVTEDAVKLLNGLIRNALFILKQNHFHINYLLETNTMATMLMKSREPKISISTRVTDGAEHQYLSVQLPAVVITSSDLFLLLTRVLRFNVCPNEQGPSVVDLCTPTGAIFLVTSRAWVGRRNTKRALKNSRHDLTPLQIDVMCSDKYDYEEDIAELRISMSTVPGTRIRLACIDIMRGQVSEVRDAIHFLIDQFINNNYDDLEKNGVQTISRIPIAAPTWP	not soluble
MARSLVFIAIALIAVVSAGPGDKDQPKPDHKKGPGGFHHFFPKFFGNVSEEGKKEIGALFKNQDLTLAEVDTKIAALAEKYGVAAAYKEHKAKEATNEAEAKKKTASVISNLSAVSAKLTAIHDNKSLTRKAQREAIAALRKEHEAEVAALDFIGKRSHGFGKHHGRHGKGNGKFFGKRGGNKMERKTAAQ	not soluble
GANRTLIVTTILEEPYVMYRKSDKPLYGNDRFEGYCLDLLKELSNILGFLYDVKLVPDGKYGAQNDKGEWNGMVKELIDHRADLAVAPLTITYVREKVIDFSKPFMTLGISILYRKGTPIDSADDLAKQTKIEYGAVRDGSTMTFFKKSKISTYEKMWAFMSSRQQSALVKNSDEGIQRVLTTDYALLMESTSIEYVTQRNCNLTQIGGLIDSKGYGVGTPIGSPYRDKITIAILQLQEEGKLHMMKEKWWRGNGCPE	soluble
MLVEDSGHHLPESADIENALDLLLKAQLERAFGPELAEHFWAARQPRTLDERLAFIRKCWIGVFKDSPLSTFGLERLEQLERLCRSKRRGRELSAAEHHQFAEELARLWEQVQRLLPRAAPETSYASSASAGGVHSGDAHTPATLSDAESAHAAPEAMRIEAPATSARSASGCMARVSSDVAAAATNVSLVVLDGENIAWAHGQNAVFSPKGIAIAVDFFRKRGYRCVVFLPDYRRKRADLPTVSASDALVFVPAGEYDDTFALGYAVGHDAILVTNDLLQDHLDQFYPDEGEAREALRKWLGSHRCSFTFVGDEFLPNPHFFLP	not soluble
